In patent US20250333534A1 (HEFEI TG IMMUNOPHARMA, published 2025):
Numbering of substitutions follows the chain as printed.

T1: Human CD155 protein (Human CD155), expressed on cells (human, UniProt P15151 21-417)
T1 construct: also called CHO-K1-human CD155; CHO-K1-CD155
T1 sequence: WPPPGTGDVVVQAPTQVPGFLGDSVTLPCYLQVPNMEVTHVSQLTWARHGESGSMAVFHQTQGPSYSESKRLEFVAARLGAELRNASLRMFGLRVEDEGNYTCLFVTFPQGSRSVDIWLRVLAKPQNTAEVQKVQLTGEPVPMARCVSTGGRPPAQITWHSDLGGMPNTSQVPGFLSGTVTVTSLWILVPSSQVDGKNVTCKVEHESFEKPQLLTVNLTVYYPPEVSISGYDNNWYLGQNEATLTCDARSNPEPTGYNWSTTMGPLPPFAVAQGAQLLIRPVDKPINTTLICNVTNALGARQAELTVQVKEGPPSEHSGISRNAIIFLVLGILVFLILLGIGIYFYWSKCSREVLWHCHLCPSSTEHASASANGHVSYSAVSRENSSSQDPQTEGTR

B1: murine CD155 antibody (mutgi1005) (antibody, mouse IgG2a)
heavy: QVQMQQSGAELVKPGASVKLSCKTSGFTFSSSYISWLKQKPGQSLEWIAWIYAGTGDTNYNQKFTGKAQVTVDTSSSTAYMQFSSLTTEDSAIYYCVRHGSTGRGWYFAVWGAGTTVTVSSAKTTAPSVYPLAPVCGDTTGSSVTLGCLVKGYFPEPVTLTWNSGSLSSGVHTFPAVLQSDLYTLSSSVTVTSSTWPSQSITCNVAHPASSTKVDKKIEPRGPTIKPCPPCKCPAPNLLGGPSVFIFPPKIKDVLMISLSPIVTCVVVDVSEDDPDVQISWFVNNVEVHTAQTQTHREDYNSTLRVVSALPIQHQDWMSGKEFKCKVNNKDLPAPIERTISKPKGSVRAPQVYVLPPPEEEMTKKQVTLTCMVTDFMPEDIYVEWTNNGKTELNYKNTEPVLDSDGSYFMYSKLRVEKKNWVERNSYSCSVVHEGLHNHHTTKSFSRTPGK
light: QAVVTQESALTTSPGETVTLTCRSSTGAVTTSNYANWVQEKPDHLFTGLIGGTNNRAPGVPARFSGSLIGDKAALTITGAQTEDEAIYFCALWYSNHFVFGGGTKLTVLQPKSSPSVTLFPPSSEELETNKATLVCTITDFYPGVVTVDWKVDGTPVTQGMETTQPSKQSNNKYMASSYLTLTARAWERHSSYSCQVTHEGHTVEKSLSRADCS
notes: also called murine monoclonal antibody; murine antibody
B2: human-mouse chimeric antibody mutgi1005-hIgG4 (antibody)
heavy: not shown
light: QAVVTQESALTTSPGETVTLTCRSSTGAVTTSNYANWVQEKPDHLFTGLIGGTNNRAPGVPARFSGSLIGDKAALTITGAQTEDEAIYFCALWYSNHFVFGGGTKLTVLGQPKAAPSVTLFPPSSEELQANKATLVCLISDFYPGAVTVAWKADSSPVKAGVETTTPSKQSNNKYAASSYLSLTPEQWKSHRSYSCQVTHEGSTVEKTVAPTECS
notes: Murine variable regions fused with wild-type human IgG4 and lambda constant regions; also called mutgi1005-hlgG4; chimeric CD155 antibody
B3: human-mouse chimeric antibody mutgi1005-hIgG1 (antibody)
heavy: not shown
light: B2 light
notes: Murine variable regions fused with wild-type human IgG1 and lambda constant regions; also called chimeric CD155 antibody
B4: affinity-matured humanized antibody V21 (tgi1005 V21-hIgG1/4) (antibody, V domains shown)
VH: QVQLVQSGAEVKKPGASVKVSCKASGYTFTSSYISWVRQAPGQGLEWIAWIYAGTGDTNYNQKFTGRVTMTTDTSTSTAYMELRSLRSDDTAVYYCARHGYTGRGWYFAVWGQGTTVTVSS
VL: QAVVTQEPSLTVSPGGTVTLTCRSSTGAVTTSNYANWVQQKPGQAFRGLIGGTNNRAPGVPARFSGSLLGDKAALTLSGAQPEDEAEYYCILWYSNHFVFGGGTKLTVL
B5: affinity-matured humanized antibody V40 (tgi1005 V40-hIgG1/4) (antibody, V domains shown)
VH: B4 VH with Y101M
VL: B4 VL with Y34L, G52H, H97K
B6: affinity-matured humanized antibody V20 (tgi1005 V20-hIgG1/4/1LALA) (antibody, V domains shown)
VH: B4 VH
VL: B4 VL with Y34L, G52H, I91A, H97K
B7: affinity-matured humanized antibody V28 (tgi1005 V28-hIgG1/4/1LALA) (antibody, V domains shown)
VH: B4 VH with Y101L, G105H
VL: B4 VL with Y34I, A57G, H97K

Target: T1, Human CD155 protein (Human CD155), …
Test: flow cytometry on CHO-K1-human CD155 cells

Binder | binding result
B1 | binds
B2 | binds
B3 | binds
B4 | binds
B5 | binds
B6 | binds
B7 | binds
